Patent publication US20200040071A1 (HUB BIOTECH, published 2020)
Numbering of substitutions follows the chain as printed.

T1: endothelial monocyte activating polypeptide II (EMAP II) (UniProt Q12904 147-312, limits assumed)
T1 construct: also called EMAP II antigen; EMAP II protein
T1 sequence (looked up): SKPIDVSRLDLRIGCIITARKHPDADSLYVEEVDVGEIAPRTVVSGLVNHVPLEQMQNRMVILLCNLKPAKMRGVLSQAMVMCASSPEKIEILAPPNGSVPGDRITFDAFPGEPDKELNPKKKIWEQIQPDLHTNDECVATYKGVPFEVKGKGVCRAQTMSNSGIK

B1: BAP015-hum03 antibody (antibody, V domains shown)
VH: EVQLVQSGAEVKKPGATVKISCKVSGYTFTSYTMHWVRQAPGQGLEWMGYINPSSGFTNYNQKFKDRVTISADKSISTAYLQWSSLKASDTAMYYCASRFAYWGQG
VL: AIQLTQSPSSLSASVGDRVTITCKASQDVSTAVAWYQQKPGKAPKLLIYSASYRYTGVPSRFSGSGSGTDFTFTISRLEPEDFAVYYCQQHYSIPYTFGQG
notes: The printed variable regions end at FGQG (light) and WGQG (heavy), so they seem to stop short of the end of framework 4; also called anti-EMAP II parent antibody; control group
B2: BAP072-EMAP II-3 antibody (antibody, V domains shown)
VH: B1 VH with S54R, N61R, D66H, A97F
VL: B1 VL with R54G
notes: also called BAP072-EMAP 11-3
B3: BAP072-EMAP II-1 antibody (antibody, V domains shown)
VH: B1 VH with S54R, N61R, D66H, A97F
VL: B1 VL with T56W
B4: BAP072-EMAP II-2 antibody (antibody, V domains shown)
VH: B1 VH with I51T, N61T, T69H, M93W
VL: B1 VL with T56W
notes: also called BAP072-EMAP 11-2
B5: BAP072-EMAP II-4 antibody (antibody, V domains shown)
VH: B1 VH with I51T, N61T, T69H, M93W
VL: B1 VL with R54G

Legend:
[1] = target: T1, endothelial monocyte activating …; assay: SPR (Reichert SR7500DC), EMAP II protein fixed to a PEG chip (ligand printed on the sheet as hAIMP1), antibody as analyte at 0-40 nM
Experimental: (§1) A surface plasmon resonance (SPR) method was used to further compare the antigen-binding abilities between BAP015-hum03 and BAP072-EMAP II-1. Reichert SR7500DC system (Reichert Technologies, Depew, N.Y.) was used for SPR, and Scrubber2 software was used for data collection. 2.5 μg of EMAP II protein was fixed to PEG chip (Reichert Technologies), after which BAP015-hum03 and BAP072-EMAP II-1 antibodies were flowed thereinto to compare the binding abilities therebetween.

[2] = target: T1, endothelial monocyte activating …; assay: SPR, Reichert SR7500DC, EMAP II fixed to PEG chip, antibody flowed
Experimental: as §1

[3] = target: T1, endothelial monocyte activating …; assay: ELISA, EMAP II coated at 1 ug/ml, anti-IgG-HRP detection, absorbance at 450 nm
Experimental: (§2) Each well of a 96-well plate was coated with 100 μl of EMAP II antigens at a concentration of 1 μg/ml, and incubated at 37° C. for 2 hours. The coated antigens were blocked with 5% BSA and washed with washing buffer solution. […] The resulting ones were washed 3 times with washing buffer solution, then treated with anti-IgG-HRP antibodies, and then incubated for 1 hour. Then, the resulting ones were washed 3 times with washing buffer solution, and treated with a substrate for 30 minutes at room temperature. Color development was performed, after which stop solution was inserted thereinto, such that absorbance was measured at a wavelength of 450 nm to test an antigen-binding ability of the antibodies.

[4] = target: T1, endothelial monocyte activating …; assay: ELISA, plate coated with EMAP II antigen (1 µg/ml), detection with anti-IgG-HRP, OD 450 nm
Experimental: as §2

Row | Binder | koff [1] | kon [1] | Kd [2] | concentration of antibodies to reach O.D 2.5 [3] | fold antigen-binding ability against the other antibodies (BAP015-hum03, BAP072-EMAP II-2, II-3, II-4) [3] | fold antigen-binding ability against BAP015-hum03 [2] | EC50 (read off the curve) [4]
1 | B1 | 5.38e-05 s⁻¹ | 75900 M⁻¹ s⁻¹ | 0.709 nM |  |  |  | 
2 | B2 |  |  |  | ≥ 100 ng/mL |  |  | 
3 | B3 | 1.7e-06 s⁻¹ | 27000 M⁻¹ s⁻¹ | 0.063 nM | ≤ 10 ng/mL | ~10 fold | ~10 fold | ~7 ng/mL
4 | B4 |  |  |  | ≥ 100 ng/mL |  |  | 
5 | B5 |  |  |  | ≥ 100 ng/mL |  |  | 
